We go through 1 compound from publication PMC10718521, “Complexity of αvβ6-integrin targeting RGD peptide trimers: emergence of non-specific binding by synergistic interaction” (RSC Medicinal Chemistry, 2023).

One series is described as follows: in vivo. Also on record: species or system mice. The conditions noted are these: CB17 SCID, mouse, total radioactivity. The text has this:
The biodistribution of all ^68Ga-labeled peptide trimers was investigated in severe combined immunodeficiency (SCID) mice bearing subcutaneous xenografts of the αvβ6-integrin expressing human lung adenocarcinoma cell line H2009 on their right shoulders.
(§1) Unless otherwise noted, the materials and the instrumentation used (analytical and preparative HPLC, ESI-MS, gamma counter, centrifuge), and the experimental procedures (^68Ga radiolabeling and radio-TLC for quality control, determination of log D7.4, cultivation of H2009 human lung adenocarcinoma cells, generation of tumor xenografts in CB17 SCID mice, small-animal PET, and biodistribution) were described before.[19] All animal experiments have been carried out according to applicable law and institutional guidelines of Technical University of Munich, and were approved by the responsible local authority (Regierung von Oberbayern). The H2009 cells were regularly authenticated and tested for mycoplasma contamination. The affinities of the pentynoic amide functionalized peptides were determined employing a well-established ELISA protocol on immobilized integrins.[36] TRAP-triazide,[38]FF (previously termed AvB6),[32] and YY (also referred to as Tyr2-alkyne)[33] were synthesized as described previously. RP-HPLC for assessment of compound polarity was done on a 150 × 4.6 mm ReproSil-Pur 120 C18-AQ 5 μm column, with a flow of 0.75 mL min^−1 and a gradient of 10–50% MeCN in water, both containing 0.1% trifluoroacetic acid, within 15 min. The required ^natGa-complexes of the peptide trimers were synthesized by reaction with equimolar amounts of aq. GaCl3 as described.[19]

Series [1] is classed as physicochemical. The conditions noted are these: pH 7.4. Here is the method: The trimers were labeled with ^68Ga for biodistribution and small-animal PET experiments employing a fully automated method.[39] Non-radioactive reference compounds were obtained by complexation of equimolar amounts of ^natGa^3+ in form of the aq. chloride solution.[39] The polarity of the ^68Ga or ^natGa^3+ containing conjugates, respectively, was assessed by two established proxies, namely the n-octanol/water distribution coefficient at pH 7.4, log D7.4, and the retention time tR on a reverse-phase HPLC column with a suitable liquid-phase gradient (10–50% acetonitrile in water with 0.1% trifluoroacetic acid) (see Fig. 2a). […] A measurable decrease of the log D7.4 was only observed for ≥3 Tyr. […]
as §1

Turning to `CC(C)C[C@@H]1NC(=O)[C@H](CC(=O)O)NC(=O)CNC(=O)[C@H](CCCNC(=N)N)NC(=O)[C@H](Cc2ccccc2)NC(=O)[C@H](CCCCNC(=O)CCc2cn(CCCNC(=O)CCP(=O)(O)CN3CCN(CP(=O)(O)CCC(=O)NCCCn4cc(CCC(=O)NCCCC[C@H]5C(=O)N[C@@H](Cc6ccccc6)C(=O)N[C@@H](CCCNC(=N)N)C(=O)NCC(=O)N[C@@H](CC(=O)O)C(=O)N[C@@H](CC(C)C)C(=O)N[C@@H](C)C(=O)N[C@@H](Cc6ccccc6)C(=O)N6CCC[C@@H]6C(=O)N5C)nn4)CCN(CP(=O)(O)CCC(=O)NCCCn4cc(CCC(=O)NCCCC[C@H]5C(=O)N[C@@H](Cc6ccccc6)C(=O)N[C@@H](CCCNC(=N)N)C(=O)NCC(=O)N[C@@H](CC(=O)O)C(=O)N[C@@H](CC(C)C)C(=O)N[C@@H](C)C(=O)N[C@@H](Cc6ccccc6)C(=O)N6CCC[C@@H]6C(=O)N5C)nn4)CC3)nn2)N(C)C(=O)[C@H]2CCCN2C(=O)[C@H](Cc2ccccc2)NC(=O)[C@H](C)NC1=O` (68Ga complex, metal not drawn) [Y0], the tissue uptake (commonly the percentage of the injected dose found per gram of tissue) at 1.5 h in the series “in vivo” (Adrenals uptake) was determined as 2.4 ± 0.38 %ID/g; in “in vivo” (Blood uptake) it was 4.01 ± 0.74 %ID/g; in “in vivo” (Heart (myocard) uptake), 2.13 ± 0.42 %ID/g; in “in vivo” (Kidneys uptake), 90.7 ± 6.7 %ID/g; in “in vivo” (Large intestine (empty) uptake), 5.74 ± 1.36 %ID/g; in the series “in vivo” (Liver uptake), 7.55 ± 0.78 %ID/g. The tissue uptake at 1.5 h in the series “in vivo” (Lung uptake) worked out at 16.9 ± 5.34 %ID/g; in the series “in vivo” (Muscle uptake), 1.1 ± 0.22 %ID/g; in the series “in vivo” (Pancreas uptake) it was 0.91 ± 0.22 %ID/g; in the series “in vivo” (Small intestine (empty) uptake) it was 4.2 ± 1.07 %ID/g; in the series “in vivo” (Spleen uptake), 5.21 ± 1.05 %ID/g; in “in vivo” (Stomach (empty) uptake) it was 10.3 ± 1.62 %ID/g. In the series “in vivo” (Tumor H2009 uptake), the tissue uptake at 1.5 h is 8.73 ± 0.81 %ID/g. For the same compound, the “log D7.4” value in series [1] was −1.4 to −1.5. Besides, in series [1], the logD – broadly, the decadic logarithm of the distribution of all forms, ionised or not, between an organic phase and buffer at a given pH – was -1.5 ± 0.1.
